Measurements from patent US20070031511A1, “Method of treatment” (priority 2003, published 2007).

What was measured:
[1] = target: Ggly receptor on IMGE-5 cells; test: [125I]-Ggly binding to IMGE-5 cells in the presence of 2 moles Bi3+/mole Ggly
[2] = target: Ggly receptor on IMGE-5 cells; test: cell-based or functional assay

B1: glycine-extended gastrin17 (Ggly) (peptide)
peptide: XGPWLEEEEEAYGWMDFG
modifications: N-terminal pyroglutamate (Z); 125I-iodinated (IODO-GEN) in the receptor binding assay
Question: How did the % inhibition of binding by bismuth ions [1] turn out when B1 was run?
Answer: 50%

Question: And the ED50 (nM), proliferation of IMGE cells, thymidine uptake [2]?
Answer: 0.8 nM
